The data set in a line: yeast display, Sf9 membrane polyspecificity reagent, FACS + sequencing; frameworks hold sequencing errors. The method in brief: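 Nanobodies came from a synthetic yeast display library in Saccharomyces cerevisiae BJ5465, induced with galactose for 36–48 hours and stained for 1 hour at 4 °C with 10% biotinylated, detergent-solubilized Sf9 membrane reagent. Cells were enriched on streptavidin microbeads and then FACS-sorted, with low and high (top ~1%) gates set on anti-HA fluorescence for expression and streptavidin fluorescence for reagent binding. Each polyreactivity label reflects the gate a clone came from. Genes were amplified by colony PCR, sequenced by MiSeq 2 × 250 and filtered by CDR length.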
For “QVQLVESGGGLVQAGGSLRLSCAASGRTFVYYAMGWYRQAPGKEREFVATITSSGGSTYYADSVKGRFTISRDNAKNTVYLQMNSLKPEDTAVYYCSASPYIRYSKVSKYYYWGQGTQVTVSS”, the “polyreactivity (PSR sort gate)” value is “high polyreactivity”. Turning to “QVQLVESGGGLVQAGGSLRLSCAAYGITLYKYAMGWYRQAPGKERELVASISRSGGSTYYADSVKGRFTISRDNAKNTVYLEMNSLKPEDTAVYYCAKAVWWSRPAQKSYLYYYWGHGTQVTVSS”, the “polyreactivity (PSR sort gate)” value is “high polyreactivity”. For the sequence “QVQLVESGGGLVQAGGSLRLSCAASGRIFLGNAMGWYRQAPGKERELVAAITNGGGSTYYADSVKGRFTISRDNAKNTVYLQMNSLKPEDTAVYYCAAPVRQSSYTRYDSWGQGTQVTVSS”, the “polyreactivity (PSR sort gate)” value is on record as “high polyreactivity”. As for “QVQLVESGGGLVQAGGSLRLSCAASGSIFPWNAMGWYRQAPGKERELVAAISFSSGGSTYYADSVKGRFTISRDNAKNTVYLQMNSLKPEDPAVYYCAARTKLWVLGNYYYWGQGTQVTVSS”, the “polyreactivity (PSR sort gate)” value is “high polyreactivity”. On to “QVQLVESGGGLVQAGGSLRLSCAASGFTFNWYAMGWYRQAPGKERELVAAINSSGGNTYYADSVKGRFTISRDNAKNTVYLQMNSLKPEDTAVYYCAALLWGYVAFDYWGQGTQVTVSS”, for which the “polyreactivity (PSR sort gate)” value is “high polyreactivity”. Next, “QLQLVESGGGLVQAGGSLRLSCAANGSTFWIYAMGWYRQAPGKERELVAAITLRSGSTYYADSVKGRFTMSRDNAKNTVYLQMNSLKPEDTAVYYCATDSWGVDRPNYNYWGQGTQVTVSS”: “low polyreactivity”. Consider “QVQLVESGGGLVQAGGSLRLSCAASGTFSFYAMGWYRQAPGKERELVATIRSGGRTYYADSVKGRFTISRDNAKNTVYFQINSLKPEDTAVYYCAKTGFLGLRQYGYWGQGTQVTVSS”, for which the “polyreactivity (PSR sort gate)” value is “high polyreactivity”. Regarding “QVQLVESGGGLVQAGGSLRLICAASGRILSYYAMGWYRQAPGKERELVATINSGGSTNYADSVKGRFTISRDNAKNTVYLEMNSLKPEDTAVYYCAASPVWWYEYWGQGTQVNVSS”, the “polyreactivity (PSR sort gate)” value is listed as “low polyreactivity”. Consider “QVQLVESGGGLVQAGGSLRLSCAASGRTFRWYAMGWYRQAPGKETELVAAINPGGSTNYADSVKGRFTISRDNAKNTVYLQMNSLKPEDTAVYYCNAAGYDALTHNYYWGQCTQVTVSS”, for which the “polyreactivity (PSR sort gate)” value was “low polyreactivity”. Next, “QVQLVESGGGLVQAGGSLRLSCAASGIIFQLYAMGWYRQAPGKERELVASITLSGTTTYYADSVKGRVTISRDNAKNTVYLQMNSLKPEDTAVYYCAKEYYYWGQGTQVTVSS”: “low polyreactivity”. Consider “QVQLVESGGGLVQAGGSLRLSCAASGLTFYGNAMGWYRQAPGKETELVADISLSGGRTFYADSVKGRFTISRDNAKNTVYLQMNSLKPEDTAVYYCAKTYTSGYHRRYDYWGQGTQVTVSS”, for which the “polyreactivity (PSR sort gate)” value is given as “low polyreactivity”.

As for “QVQLVESGGGLVQAGGSLRLSCAASGFTFSMYGMGWYRKAPGKERELVAAIRSGGSTNYADSVKGRFTISRDNAKNTVYLQMNSLKPEDTAVYYCAADVIPDGVKKPRMYYWGQGTQVTVSS”, the “polyreactivity (PSR sort gate)” value is on record as “low polyreactivity”. Consider “QVQLVESGGGLVQAGGSLRLSCADSGSTIYGYAMGWYRQAPGKERELVAAISISGGGTYYADSVKGRFTISRDNAKNSVYLQMNSLKPEDTAVYYCARRYFWGQGTQVTVSS”, for which the “polyreactivity (PSR sort gate)” value is “low polyreactivity”. Regarding “QVQLVESGGGLVQAGGSLRLSCAASGITFYGYAMGWYRQAPGKERELVARITISGRTNYADYVKGRFTISRDNAKNTVYLQMNSLKPEDTAVYYCNAVYRGYYSGELDYWGQGTQVTVSS”, the “polyreactivity (PSR sort gate)” value is recorded as “high polyreactivity”. The same measure for “QVQLVESGGGLVQARRRLRLSCAASGRTFRENFMGWYRQEPGKEREFVAISSSGASTYYADSVKGRFTISRDNAKNTVYLQMNSLKPEDTAVYYCAAKLYGAPYSKYYYWGHGTQVTVSS”: “high polyreactivity”; for “QVQLVESGGGLVQAGGSLRLSCAASGFTFDRYAMGWYRQAPGKERELVAAISRSGASTYYADSVKGRFTISRDNAKNTVYLQMNSLKPDDTAVYYCAAKQRTKGDYWGQGTQVTVSS”: “high polyreactivity”.
